Article doi:10.1101/311175 (bioRxiv, 2018)
Read-outs that look alike come from different tables or passages of the source.

B1: E. coli glutamine synthetase fused to mEGFP (GlnA-mEGFP) (enzyme)
chain: MSAEHVLTMLNEHEVKFVDLRFTDTKGKEQHVTIPAHQVNAEFFEEGKMFDGSSIGGWKGINESDMVLMPDASTAVIDPFFADSTLIIRCDILEPGTLQGYDRDPRSIAKRAEDYLRSTGIADTVLFGPEPEFFLFDDIRFGSSISGSHVAIDDIEGAWNSSTQYEGGNKGHRPAVKGGYFPVPPVDSAQDIRSEMCLVMEQMGLVVEAHHHEVATAGQNEVATRFNTMTKKADEIQIYKYVVHNVAHRFGKTATFMPKPMFGDNGSGMHCHMSLSKNGVNLFAGDKYAGLSEQALYYIGGVIKHAKAINALANPTTNSYKRLVPGYEAPVMLAYSARNRSASIRIPVVSSPKARRIEVRFPDPAANPYLCFAALLMAGLDGIKNKIHPGEAMDKNLYDLPPEEAKEIPQVAGSLEEALNELDLDREFLKAGGVFTDEAIDAYIALRREEDDRVRMTPHPVEFELYYSV
B2: Influenza A virus hemagglutinin fused to mEGFP (HA-wt-mEGFP) (natural protein)
chain: not shown

How the values were obtained:
[1] = target: the molecule itself; experiment: Number&Brightness
[2] = target: the molecule itself

Protein	stoichiometry N [1]	stoichiometry N [2]
B1	11.9	
B2		3.17
